Source: patent US20230057461A1 (US Dept. of Health and Human Services, published 2023)

Biological target: T1, Rab escort protein REP-1 (UniProt P24386 1-653)
T1 construct: Endogenous protein detected by Western blot (Abcam cat# 134964)
T1 sequence (looked up): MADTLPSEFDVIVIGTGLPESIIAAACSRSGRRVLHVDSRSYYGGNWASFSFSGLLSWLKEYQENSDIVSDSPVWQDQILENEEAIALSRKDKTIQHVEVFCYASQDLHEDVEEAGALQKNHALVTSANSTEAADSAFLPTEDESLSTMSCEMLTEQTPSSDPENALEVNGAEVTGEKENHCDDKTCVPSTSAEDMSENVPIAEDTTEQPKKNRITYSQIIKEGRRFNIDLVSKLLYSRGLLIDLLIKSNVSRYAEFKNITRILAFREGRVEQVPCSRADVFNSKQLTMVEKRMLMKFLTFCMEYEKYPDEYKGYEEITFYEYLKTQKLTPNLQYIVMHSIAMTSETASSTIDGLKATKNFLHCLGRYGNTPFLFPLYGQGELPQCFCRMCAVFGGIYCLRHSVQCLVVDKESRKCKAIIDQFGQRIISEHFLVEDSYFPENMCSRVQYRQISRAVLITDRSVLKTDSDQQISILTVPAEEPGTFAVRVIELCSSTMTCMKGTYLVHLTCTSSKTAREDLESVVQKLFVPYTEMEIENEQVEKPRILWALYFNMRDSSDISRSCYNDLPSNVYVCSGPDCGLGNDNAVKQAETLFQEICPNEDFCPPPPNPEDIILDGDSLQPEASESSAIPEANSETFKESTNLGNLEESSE
Test: co-immunoprecipitation of GFP-Rab13 with GFP-Trap beads from MDA-MB-231 lysates, Western blot
Experimental: For immunoprecipitations, cells were lysed with a buffer containing 50mM Tris pH 7.4, 1% NP-40, 150mM NaCl, 10mM MgC12, 10% glycerol and a cocktail of protease and phosphatase inhibitors (Thermo Fischer Scientific, cat# 1861281). Lysates were cleared by centrifugation and mixed with GFP-Trap Magnetic Agarose beads (Chromotek, cat# gtma-10) for 1.5 h, at 4° C. Immobilized complexes were eluted with Laemmli's buffer and analyzed by SDS-PAGE and immunoblotting.

B1: GFP-Rab13 (N-terminally GFP-tagged human Rab13) (other, UniProt P51153 1-203, looked up, not shown: large carriers)
chain: MAKAYDHLFKLLLIGDSGVGKTCLIIRFAEDNFNNTYISTIGIDFKIRTVDIEGKKIKLQVWDTAGQERFKTITTAYYRGAMGIILVYDITDEKSFENIQNWMKSIKENASAGVERLLLGNKCDMEAKRKVQKEQADKLAREHGIRFFETSAKSSMNVDEAFSSLARDILLKSGGRRSGNGNKPPSTDLKTCDKKNTNKCSLG
notes: Stably expressed in MDA-MB-231 cells from constructs with the wild type or the delta-PMO Rab13 3'UTR; the encoded protein is the same; Assayed from cell lysates; also called exogenous GFP-Rab13; exogenous Rab13
binding result: binds
